Measurements as given in the RNAGym collection of RNA variant scans (doi:10.1073/pnas.2313332121).

B1: TPR t1 (parent)
chain: GACCAAUCUGCCCUCAGAGCUCGAGAACAUCUUCGGAUGCAGAGGAGGCAGGCUUCGGUGGCGCGAUAGCGCCAACGUCCUCAACCUCCAAUGCAUCCCACCACAUGAUGAUGCCUGAAGAGCCUUGGUUUUUUG

Variants of: B1
Assay: polymerase ribozyme fitness, log enrichment relative to wild type (log ratio); higher = more active; in vitro selection for triplet polymerase activity
How it was run: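 Each subunit of a heterodimeric triplet polymerase ribozyme was mutagenized into a library by PCR, transcribed, and subjected to one round of in vitro selection, run in triplicate. Libraries were annealed with a biotinylated primer, the partner subunit and triplets, incubated frozen at −7 °C, and extended constructs were gel-excised, captured on streptavidin beads and recovered by RT-PCR. Input and output libraries were sequenced on Illumina, keeping genotypes with ≥10 input reads and ≥1 read per output. Fitness is log base 2 of genotype enrichment divided by wild-type enrichment, from inverse-variance-weighted replicate averages.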

Variant	polymerase ribozyme fitness (log ratio)
C70A C101G	-4.14
C70U U78A	-1.17
C70U C97U	-0.226
C70A G135U	-1.99
G69C C114A	-2.28
G69U C82U A111C U112A G122C	-0.869
C70A U87A	-1.22
C70G A111U G117U A121U	-6.12
G69U U81G A103U	-6.76
C70U A100U	-1.33
C70U A100C	-1.61
G69U C86G G120C	0.63
C70U A95C U109A	-7.47
C70G U78A G93C	-2.76
G69U C115U	-0.095
C70G U78C G113C	-5.1
C70G U81A G117U G120A	-5.65
G69U A118C	-2.03
G69U G120U U132C	1.03
C70U G117U	-3.24
G69C C101G G122A U125A	-3.83
C70U U81A U116G	-3.38
C70U A91U	-3.34
G69C U109A	-8.01

Variant	polymerase ribozyme fitness (log ratio)
G69C U87A	-1.98
G69U C98G	-2.4
C70A G77A A90G	-1.37
C70U C94U	-0.0504
G69U C114U U130G	-1.33
C70A C114U U125A	-5.48
C70G U78G A119G	-1.17
G69U U131A	-0.175
G69C U133G	-1.57
G69U G71C	-2.52
C70A C72U U92G G120U	-6
C70A C72U C101A	-2.45
C70G U78C U92C	-5.65
C70U C86A	-1.13
C70U C86U	-1.4
C70U C86G	-1.54
G69U U81C G120C G122A G128A	-3.32
G69U C101U U126C	-0.166
C70A C99U U109A	-6.83
C70G U116A	-4.95
G69U G120A G128C	-1.25
C70U C82U	-1.59
G69U C79A C88G	-0.43
C70G C124A	-1.21

Variant	polymerase ribozyme fitness (log ratio)
G69U C85G	-0.537
G69C U112A	-0.545
G69C C99U G120U	-5.41
G69C G110A	-2.04
C70G U109G	-6.4
C70U G127C	-2.15
G69U A83U A95U U106A	0.29
C70G C82A	-2.48
C70G C82U	-3.14
G69U U78G U112A	2.31
G69C C98A C104A C115U	-7.27
C70U G120A	0.259
C70U G120C	0.206
C70U C82G U106C	-1.36
G69U A84U A90U	-0.387
C70U C99A A121G	-5.54
G69C C85A G117C A121C	-5.54
C70U C124U	0.579
C70U C124A	1.38
C70G C80A C104G C124G	-6.03
G69U A119G G122C	-2.33
C70G U81C	-3.83
C70G U81A	-5.64
C70A C73U	-1.81

Variant	polymerase ribozyme fitness (log ratio)
G69U G135C	1.06
C70U C82G C104A A111U C115U G127U	-6.19
C70U C79G C114A	-6.1
C70A A83U	-2.44
G69U U87C	0.421
C70A U81A	-2.88
C70A A75G	-2.89
C70G C123G U131C	0.0447
G69C C86U	-1.37
C70G C123U	-0.882
C70G C104A	-4.9
C70U G93U	-1.7
C70U G93A	-0.708
C70U C82U G93U	-1.52
G69U G117U	-1.07
C70A C80G U87A C88U C94U C123G	-6.08
G69U A95U G122A	-0.876
G69U U78G U112A U133C	3.16
C70A G117A	-3.29
C70A U131A	-1.34
C70G A105G	-5.16
C70A A95G	-1.6
C70A U116A G120C	-1.85
G69U C101A	-0.434

Variant	polymerase ribozyme fitness (log ratio)
C70U C101U	-0.854
C70U C101G	-2.81
C70A C86U	-1.81
C70G U78C	-2.66
C70A C85U C88U G122U C124G	-2.37
C70G A100U C115A G120U	-2.99
C70G C88G	-5.57
G69U A95G G135U	-0.343
G69C G117C	-3.97
G69C G117U	-3.02
C70G C85A G93A C99G G110U	-6.29
C70U C72U	0.27
G69U G71U G120U U126A	-0.887
C70A C72G	-4.19
G69C U81C	-1.86
C70A C114G	-4.93
C70A C114U	-3.91
G69U C73U G110A C123A	-0.661
G69U C102G A119G	-2.01
G69C C79U G117U U134G	-1.73
C70G U92C C123A	-5.06
G69U C88U G120U	0.599
G69U A84U	0.757
G69U A84C	0.129

Variant	polymerase ribozyme fitness (log ratio)
G69U G71U G117A	-2.19
G69U A74U C80U	-0.977
G69C C115G	-3.08
G69U C98U U129C	-1.15
C70U A84G	-1.86
C70A C101U U106C	-1.6
G69U U109A	-2.79
G69U U109C	-0.222
G69U G71A A84C	-4.28
C70U C98A	-4.77
C70A C82U A84C U87C U116A C123G U131C	-1.57
C70G G77A	-1.74
G69C U92A U133G	-4.36
G69U C104U G127A	-0.309
C70U G77U C94A U116C A121C	-2.35
C70G U133G	-3.44
C70A C102A U112C	-2.45
C70U C73G A105U	-4.61
G69C G93U	-2.49
G69C G93C	-3.05
C70U C94G A95G	-1.78
C70G C79U	-3.08
G69U G113A	-0.285
G69U G113C	-0.897

Variant	polymerase ribozyme fitness (log ratio)
C70A U106C	-2.99
C70G G113A	-3.02
C70G G113C	-4
C70U C85G	-2.33
C70A A111U A121U	-5.08
C70G C82A G113C	-6.03
G69U U129A	-0.546
G69U G93C	-0.253
C70U C72A C79U G110A	-2.38
C70U C94U U112A	0.254
G69C C89G	-3.31
G69C U92C	-2.26
G69C U92G	-4.02
C70G A103G	-4.93
G69U C123G	2.28
G69U C124U	2.41
G69U C98U U112G	-1.16
G69U A119U	0.577
C70A C124G U125A	0.0006
G69U C99A A111C	-2.81
G69U C72G	-1.29
G69U C99A G127C	-3.98
C70U C85U A91C	-3.52
